Reference: IntAct's records for PubMed 11801603

B1: Baculoviral IAP repeat-containing protein 7 (Homo sapiens), Q96CA5 (parent)
chain: MGPKDSAKCLHRGPQPSHWAAGDGPTQERCGPRSLGSPVLGLDTCRAWDHVDGQILGQLRPLTEEEEEEGAGATLSRGPAFPGMGSEELRLASFYDWPLTAEVPPELLAAAGFFHTGHQDKVRCFFCYGGLQSWKRGDDPWTEHAKWFPSCQFLLRSKGRDFVHSVQETHSQLLGSWDPWEEPEDAAPVAPSVPASGYPELPTPRREVQSESAQEPGGVSPAEAQRAWWVLEPPGARDVEAQLRRLQEERTCKVCLDRAVSIVFVPCGHLVCAECAPGLQLCPICRAPVRSRVRTFLS
partner: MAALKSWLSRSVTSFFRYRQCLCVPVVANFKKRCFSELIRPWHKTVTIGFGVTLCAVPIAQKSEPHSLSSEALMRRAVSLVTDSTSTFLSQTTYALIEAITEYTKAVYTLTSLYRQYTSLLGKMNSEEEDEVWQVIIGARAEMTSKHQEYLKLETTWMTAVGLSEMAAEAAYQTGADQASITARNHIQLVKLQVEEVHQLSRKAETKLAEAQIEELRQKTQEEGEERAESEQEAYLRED
B2: Baculoviral IAP repeat-containing protein 7 (Homo sapiens), Q96CA5 (parent)
chain: B1 chain

Variants of: B1
Conditions: with dbloh_human DIABLO

| Variant | effect of a mutation on the interaction |
| --- | --- |
| D120A | decreasing interaction |
| D138A | decreasing interaction |

Variants of: B2
Conditions: with casp9_human CASP9, P55211
Sequence of casp9_human CASP9, P55211 (P55211 whole entry): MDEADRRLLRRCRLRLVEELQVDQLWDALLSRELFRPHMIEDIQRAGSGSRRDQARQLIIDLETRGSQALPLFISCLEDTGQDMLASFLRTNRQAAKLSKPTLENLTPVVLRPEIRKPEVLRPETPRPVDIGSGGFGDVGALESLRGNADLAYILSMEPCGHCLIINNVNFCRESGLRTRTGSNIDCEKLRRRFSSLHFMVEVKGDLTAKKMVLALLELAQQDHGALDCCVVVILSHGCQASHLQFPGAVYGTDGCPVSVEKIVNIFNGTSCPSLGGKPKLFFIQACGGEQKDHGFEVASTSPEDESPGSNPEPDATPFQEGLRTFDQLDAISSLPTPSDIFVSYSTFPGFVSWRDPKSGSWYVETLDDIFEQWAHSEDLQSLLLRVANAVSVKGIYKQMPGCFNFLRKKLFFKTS

| Variant | effect of a mutation on the interaction |
| --- | --- |
| D138A | decreasing interaction |
